Assays:
[1] = molecular target: T1, Ccm(ABCD)2 heterooctameric heme translocation complex (Escherichia coli, UniProt P33931 1-207; P0ABL8 1-220; P0ABM1 1-245; P0ABM5 1-69); assay: cryo-EM structure; single-particle analysis of the co-expressed, co-purified wild-type CcmABCDE sample in GDN, nucleotide-free, inward-open state; classes Ccm(ABCD)2 at 3.47 A and Ccm(ABCD)2E at 3.81 A; 20 mM Tris/HCl pH 7.5, 150 mM NaCl; settings: both partners purified
T1 construct: CcmA of Escherichia coli, as m1; CcmB of Escherichia coli, as m2; CcmC of Escherichia coli, as m3; CcmD of Escherichia coli, as m4; Nucleotide-free, inward-open state; C2-symmetric heterooctamer; Used as the target of CcmE; also called CcmABCD complex; source: GDN; copies: 2 + 2 + 2 + 2
T1 sequence 1: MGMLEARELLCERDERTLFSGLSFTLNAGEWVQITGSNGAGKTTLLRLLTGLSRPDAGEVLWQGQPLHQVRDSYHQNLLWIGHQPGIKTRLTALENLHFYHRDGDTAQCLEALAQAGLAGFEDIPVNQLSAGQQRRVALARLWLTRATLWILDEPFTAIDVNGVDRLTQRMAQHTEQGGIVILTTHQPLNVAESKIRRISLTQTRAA
T1 sequence 2: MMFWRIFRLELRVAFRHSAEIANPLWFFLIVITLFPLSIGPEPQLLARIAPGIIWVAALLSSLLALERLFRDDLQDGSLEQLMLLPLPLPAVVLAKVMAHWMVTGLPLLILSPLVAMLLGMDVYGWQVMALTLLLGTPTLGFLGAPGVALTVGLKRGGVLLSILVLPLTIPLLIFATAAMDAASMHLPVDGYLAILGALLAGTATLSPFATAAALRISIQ
T1 sequence 3: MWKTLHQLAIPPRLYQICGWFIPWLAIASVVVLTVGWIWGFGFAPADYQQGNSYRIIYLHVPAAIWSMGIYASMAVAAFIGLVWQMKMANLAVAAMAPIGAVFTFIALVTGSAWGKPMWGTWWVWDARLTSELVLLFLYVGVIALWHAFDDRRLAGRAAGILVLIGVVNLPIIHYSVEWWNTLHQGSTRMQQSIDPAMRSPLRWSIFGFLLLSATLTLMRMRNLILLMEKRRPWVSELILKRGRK
T1 sequence 4: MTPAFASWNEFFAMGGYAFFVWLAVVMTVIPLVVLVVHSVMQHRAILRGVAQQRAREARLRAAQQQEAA

[2] = molecular target: the molecule itself; assay: cryo-EM structure; single-particle analysis of the co-expressed, co-purified E154Q^A variant complex in GDN with 2.5 mM ATP added, closed state; Ccm(E154QAB)2CD with ATP at 3.62 A
[3] = molecular target: the molecule itself; assay: cryo-EM structure; single-particle analysis of the co-expressed, co-purified E154Q^A variant complex in DDM, no ATP added, closed state; Ccm(E154QAB)2CD at 3.94 A

B1: CcmE, heme chaperone (natural protein, Escherichia coli)
chain: MNIRRKNRLWIACAVLAGLALTIGLVLYALRSNIDLFYTPGEILYGKRETQQMPEVGQRLRVGGMVMPGSVQRDPNSLKVTFTIYDAEGSVDVSYEGILPDLFREGQGVVVQGELEKGNHILAKEVLAKHDENYTPPEVEKAMEANHRRPASVYKDPAS
notes: CcmE of Escherichia coli, monotopic membrane protein with an N-terminal transmembrane helix (modelled N2 to S32) and a periplasmic beta-barrel domain from F37; the ccmE gene stood in the construct used to produce CcmABCD; also called chaperone CcmE; source: GDN
For B1, the “stoichiometry N” value [1] was 1.

B2: CcmA E154Q variant with N-terminal StrepTag(II) (natural protein, Escherichia coli)
chain: MGMLEARELLCERDERTLFSGLSFTLNAGEWVQITGSNGAGKTTLLRLLTGLSRPDAGEVLWQGQPLHQVRDSYHQNLLWIGHQPGIKTRLTALENLHFYHRDGDTAQCLEALAQAGLAGFEDIPVNQLSAGQQRRVALARLWLTRATLWILDQPFTAIDVNGVDRLTQRMAQHTEQGGIVILTTHQPLNVAESKIRRISLTQTRAA
notes: CcmA of Escherichia coli with the catalytic glutamate of the switch II region (Walker B motif) replaced; Same construct as m1 apart from E154Q; also called E154Q^A variant; ^E154QA; source: DDM or GDN
With B2 the “stoichiometry N” value [2] was 2.

B3: CcmB, transmembrane subunit of the core ABC transporter CcmAB (natural protein, Escherichia coli)
chain: MMFWRIFRLELRVAFRHSAEIANPLWFFLIVITLFPLSIGPEPQLLARIAPGIIWVAALLSSLLALERLFRDDLQDGSLEQLMLLPLPLPAVVLAKVMAHWMVTGLPLLILSPLVAMLLGMDVYGWQVMALTLLLGTPTLGFLGAPGVALTVGLKRGGVLLSILVLPLTIPLLIFATAAMDAASMHLPVDGYLAILGALLAGTATLSPFATAAALRISIQ
notes: CcmB of Escherichia coli, integral membrane protein with six transmembrane helices, expressed from the ccm operon amplified from pEC86; Expressed from the cloned ccm operon; no truncation is described; source: DDM or GDN
B3 was tested, and the “stoichiometry N” value [3] was 2.
